Source: paper PMC10811823

B1: Lgals3bp (galectin 3 binding protein): RAW/shM1 (MGAT3 silenced) (protein)
parent chain: MALLWLLSVFLLVPGTQGTEDGDMRLVNGASANEGRVEIFYRGRWGTVCDNLWNLLDAHVVCRALGYENATQALGRAAFGPGKGPIMLDEVECTGTESSLASCRSLGWMVSRCGHEKDAGVVCSNDTTGLHILDLSGELSDALGQIFDSQQGCDLFIQVTGQGYEDLSLCAHTLILRTNPEAQALWQVVGSSVIMRVDAECMPVVRDFLRYFYSRRIEVSMSSVKCLHKLASAYGATELQDYCGRLFATLLPQDPTFHTPLDLYAYARATGDSMLEDLCVQFLAWNFEPLTQSESWSAVPTTLIQALLPKSELAVSSELDLLKAVDQWSTETIASHEDIERLVEQVRFPMMLPQELFELQFNLSLYQDHQALFQRKTMQALEFHTVPVEVLAKYKGLNLTEDTYKPRLYTSSTWSSLVMASTWRAQRYEYNRYNQLYTYGYGSVARYNSYQSFQTPQHPSFLFKDKQISWSATYLPTMQSCWNYGFSCTSNELPVLGLTTSSYSNPTIGYENRVLILCGGYSVVDVTSFEGSKAPIPTALDTNSSKTPSLFPCASGAFSSFRVVIRPFYLTNSTDMV
B2: Lgals3bp (galectin 3 binding protein): RAW/MGAT3 (MGAT3 overexpressed) (protein)
parent chain: B1 parent chain
B3: Lgals3bp (galectin 3 binding protein): N69A/LG (protein)
parent chain: B1 parent chain

Experiments:
western blot = conditions: glycan changed form; control: control RAW264.7
[1] = Co-IP/western after MG132; conditions: glycan changed form; control: control RAW264.7
[2] = CHX chase, western blot (protein persistence); conditions: glycan changed form; control: control RAW264.7
[3] = Co-IP/western after MG132, HEK 293T; conditions: glycan lost; control: WT/LG

Row | Protein | expression_or_secretion (western blot) | other: ubiquitination [1] | degradation_or_half_life [2] | other: ubiquitination [3]
1 | B1 | increases | decreases | increases | –
2 | B2 | – | – | decreases | –
3 | B3 | – | – | – | decreases
